# Test results reported in patent publication US20250027068.
# Numbering of substitutions follows the chain as printed.
# B1: PRT-504 (protein)
# chain: MITSVWTKGVTPPTDFIKGEDVFHAPYKAGQGWYDITKAFDGGDDLLCGAATAGNMLHWWFDQNKEYIEAYLKKHPEKQKIMFGDQELLDVRKAINTKGSQKNSELFNYFRDKAFPNLSARRLGVMPDLVLDMFINGYYLNVTKTQTTDVNRTYQEKDKRGGIFDAVFTRGDQSKLLTSRHDLKNKGLNEISQLIKQELTEGKALGLSHTYANVRINHVINLWGADFDADGNLEAIYVTDSDSNASIGMKKYFVGVNSAGKVAISAKEIKEDNIGAQVLGLFTLSTGQDIWNQTNLEHHHHHH
# B2: PRT-452 (protein)
# chain: MVTSVWTKGVTPPANFTQGEDVFHAPYKANQGWYDITKAFDGGDDLLCGAATAGNMLHWWFDQNKDQIEAYLKEHPEKQKINFNGEQMFDVKEAIDTKDDQTNSELFNYFKEKAFPYLSTKHLGVFPDHVLDMFINGYRLSLTNHGPTPVKEGSKDPRGGIFDAVFTRGDQSKLLTSRHDLKNKTLKEISDLIKQELTEGKALALSHTYANVRINHVINLWGADFDSNGNLEAIYVTDSDSNASIGMKKYFVGVNSAGKVAISAKEIEDDNIGAQVLGLFTLSTGQDIWNQTNLEHHHHHH
# B3: PRT-518 (protein)
# chain: MVTSVWTKGVTPPTDFIKGEDVFHAPYKAGQGWYDITKTFNGKDNLLCGAATAGNMLHWWFDQNKEYIEAYLKKHPEKQKIIFNNQELFDLKAAINTKGSQKNSELFNYFRDKAFPNLSARRLGVFPDLVLDMFINGYYLNVTKTQTTDVNRTYQEKDKRGGIFDAVFTRGVQSKLLTSRHDFKEKGLKEISDLIKQELTEGKALGLSHTYANVRINHVINLWGADFDSDGNLKAIYVTDSDTNASIGMKKYFVGVNSAGKVAISAKEIKEDNIGAQVLGLFTLSTGQDIWNQTNLEHHHHHH
# B4: PRT-477 (protein)
# chain: MVTSVWTKGVTPPTNFTYGEDVLHAPYVANQGWYDITKTFNGKDDLLCGAATAGNMLHWWFDQNKEQIENYLKKHPEKQKINFNGEQMFDVKEAIDTKDSQLDSKLFEYFKEKAFPYLSTKHLGVFPDHVIDMFINGYRLSLTNHGPTPVKRGSKDPRGGIFDAVFTRGDQSKLLTNRHDLKNKTLKEISDLIKQELTEGKALGISHTYANVRINHVINLWGADFDAEGNLEAIYVTDSDSNASIGMKKYFVGVNSNGKVAISAKEIEEDNIGAQVLGLFTLSTGQDIWNQTNLEHHHHHH
# B5: PRT-598 (protein)
# chain: MANQEIRYSEETPSTITSVWTKGVTPPTDFIQNEDVLHAPYIANQGWYDITKTFNGKDDLLCGAATAGNMLHWWFDQNKEQIENYLKKHPEKQKINFNGEQMFDVKEAIDTKDSQTDSALFEYFKDKAFPYLSTKHLGVFPDHVIDMFINGYRLSLTNHGPTPVKRGTKDPRGGIFDAVFTRGDQSKLLTSRHDFKEKTLNEISDLIKQELTEGKALGLSHTYANVRINHVINLWGADFNAEGNLEAIYVTDSDSNASIGMKKYFVGVNSAGKVAISAKEIEGDNIGAQVLGLFTLSTGQDIWNQTNLEHHHHHH
# B6: PRT-479 (protein)
# chain: MITSVWTKGVTPPTDFIYGEDVLHAPYKAGQGWYDITKAFDGGDDLLCGAATAGNMLHWWFDQNKEQIENYLKKHPEKQKINFNGEQMFDVKEAIDTKDSQTNSELFNYFKEKAFPYLSTKHLGVFPDHVIDMFINGYRLSLTNHGPTPVKRQEKDPRGGIFDAVFGRGDQTKLLTNRHDLKNKTLNEISQLIKQELTEGKALGISHTYANVRINHVINLWGADFDAEGNLEAIYVTDSDSNASIGMKKYFVGVNSNGKVAISAKEIEEDNIGAQVLGLFTLSTGQKIWNKTNLEHHHHHH
# B7: PRT-467 (protein)
# chain: B6 chain with Y18K, L23F, E66D, N70R, K74E, I131L, N177S, I205L, N257A, E268K
# B8: PRT-693 (protein)
# chain: MQITSVWTKGVIPPTPEQFRYNNEDVIHAPYLPNQGWYDITKTFNGGDNLLCGAATAGNMLHWWFDQNKTEIEAYLSKYPEKQKIIFNNQELFDLRAAINTKDSQTNSQLFNYFRDKAFPNLSARQLGVMPDLVLDMFINGYYLNVFKTQSTDVNRPYQDRDKRGGIFDHVFGRGDQTTLLTARHDLKNGTLNDISTLIKQELQSGKALALSHTYANVSISHVINLWGADFNAEGNLEAIYVTDSDANSSIGMKKYYVGVNAHGKVAISAKKIEGENIGAQVLGLFTLSSGKEIWQKLSLEHHHHHH
# B9: PRT-525 (protein)
# chain: MITSVWTKGVTPPAKFTQGEDVFHAPYVANQGWYDITKTFNGKDNLLCGAATAGNMLHWWFDQNKEEIEAYLKKHPEKQKIIFNNQELFDLKAVINTKDSQTNSALFNYFKDKAFPNLSARRLGVFPDLVLDMFINGYYLNVYKTQTTDVNRTYQTKDRRGGIFDAVFTRGVQSKLLTERHDLKNKTLKEISDLIKQELTEGKALGLSHTYANVRINHVINLWGADFDSNGNLEAIYVTDSDTNASIGMKKYFVGVNSAGKVAISAKEIKEDNIGAQVLGLFTLSTGQDIWNQTNLEHHHHHH
# B10: PRT-522 (protein)
# chain: B9 chain with A14T, K15D, T17I, Q18K, V28K, N30G, L183F, N185E
# B11: PRT-602 (protein)
# chain: MANQEIRYSEVTPYHITSVWTKGVTPPANFTQGEDVFHAPYVANQGWYDITKTFNGKDDLLCGAATAGNMLHWWFDQNKDQIERYLEEHPEKQKINFNGEQMFDVKEAIDTKDSQTDSKLFEYFKEKAFPYLSTKHLGVFPDHVIDMFINGYRLSLTNHGPTPVKEGSKDPRGGIFDAVFTRGDQSKLLTSRHDFKEKTLKEISDLIKQELTEGKALGLSHTYANVRINHVINLWGADFDSEGNLKAIYVTDSDSNASIGMKKYYVGVNSAGKVAISAKEIEEDNIGAQVLGLFTLSTGQDIWNQTNLEHHHHHH
# B12: PRT-434 (protein)
# chain: MSQTEDSESLQRLRDIEDFQAEKKKQNVVYTKWLDGVDVKDHDFRKIVDGNIAYYATPLLNGRGFYDINKDFNRDSDKCAAAVAANMFHYWLDRNRDNVDRFLRQNPEKHGIIELPDGQLKLSDFLNTYESDDGYRDKSKLFDFISNNFNGPVWTDKLLDNYINGYAYNYKYGRTIEDPTKNTSKINFFKEVFNEKILTNNHSIRNQNEFSVLLSEALYTGKAIGLSYGPAGLRHGLGHIISVWGADLDADGNVVAIYVTDSDDKKLTIGDERVGLKRYKISTDDEGRLRLTAYEETHNTGGQIRGLWTLDTGKQAWADYFDKTEQTGTDQAEQ
# B13: PRT-685 (protein)
# chain: MQITSVWTKGVTPLTPEQFRNNNEDVIHAPYLPNQGWYDITKAFNGKDNLLCGAATAGNMLHWWFDQNKEEIEAYLKKYPEKQKIIFNNQELFDLRKAINTKDSQTNSALFNYFRDKAFPNLSARQLGVMPDLVLDMFINGYYLNVFKTQSTDVNRPYQDKDKRGGIFDHVFNRGDQTTLLTARHDLKNKTLNDISTIIKQELSSGKALALSHTYANVSISHVINLWGADFNAEGNLEAIYVTDSDANASIGMKKYYVGRNAHGHVAISAKKIEGENIGAQVLGLFTLSSGKEIWQKLSLEHHHHHH
# B14: PRT-486 (protein)
# chain: MVTSVWTKGVTPPTDFIKGEDVFHAPYKAGQGWYDITKTFNGKDNLLCGAATAGNMLHWWFDQNKDQIERYLKEHPEKQKIIFNNQELFDLKAAIDTKDSQTDSKLFEYFKEKAFPYLSTKHLGVFPDHVLDMFINGYRLSLTNHGPTPVKEGSKDKRGGIFDAVFTRGVQSKLLTSRHDFKEKTLKEISDLIKQELTEGKALGLSHTYANVRINHVINLWGADFDSEGNLKAIYVTDSDTNASIGMKKYFVGVNSAGKVAISAKEIKEDNIGAQVLGLFTLSTGQDIWNQTNLEHHHHHH
# Biological target: pooled human IgG (human IgG1, 2, 3 and 4)
Protein,Enzyme Activity Endpoint Assay: Fab′2 [ng/µL],Enzyme Activity Endpoint Assay: Fc [ng/µL],Enzyme Activity Endpoint Assay: IgG [ng/µL],Enzyme Activity Endpoint Assay: scIgG [ng/µL],Enzyme Activity Endpoint Assay (purified): Fab'2 [ng/µL],Enzyme Activity Endpoint Assay (purified): Fc [ng/µL],Enzyme Activity Endpoint Assay (purified): IgG [ng/µL],Enzyme Activity Endpoint Assay (purified): scIgG [ng/µL],Enzyme Activity Endpoint Assay (purified): Fab′2 [ng/µL]
B1,1310,442,0,0,,,,,
B2,0,0,1870,0,,,,,
B3,1220,423,0,0,,,,,
B4,543,277,0,224,,,,,
B5,567,172,0,213,567,172,0,213,
B6,1340,481,0,0,,,,,
B7,685,374,57,375,,,,,
B8,1280,436,0,0,,,,,
B9,1340,386,0,0,,,,,
B10,736,253,0,0,,,,,
B11,543,375,0,212,543,375,0,212,
B12,567,314,0,234,,314,0,234,567
B13,1200,448,0,0,,,,,
B14,145,210,107,627,,,,,
